Assay results as given in patent US20240425603A1.
Values belong to the substance of their own block, whether it stands above or below them.

Columns and labels:
[1] = target: Recombinant mouse VEGFR1-Fc (R&D Systems) (mouse) (UniProt P35969); assay: MSD ECL competition on plate-bound mouse VEGFR1-Fc; competitor biotin PlGF (2 nM)
[2] = target: human VEGFR2, over-expressed on HEK293 cells (human) (UniProt P35968); assay: flow cytometry, HEK cells over-expressing human VEGFR2
[3] = target: human VEGFR3, over-expressed on K562 cells (human) (UniProt P35916); assay: flow cytometry, K562 cells over-expressing human VEGFR3
Sequence of human VEGFR3, over-expressed on K562 cells (human) (P35916 25-1363): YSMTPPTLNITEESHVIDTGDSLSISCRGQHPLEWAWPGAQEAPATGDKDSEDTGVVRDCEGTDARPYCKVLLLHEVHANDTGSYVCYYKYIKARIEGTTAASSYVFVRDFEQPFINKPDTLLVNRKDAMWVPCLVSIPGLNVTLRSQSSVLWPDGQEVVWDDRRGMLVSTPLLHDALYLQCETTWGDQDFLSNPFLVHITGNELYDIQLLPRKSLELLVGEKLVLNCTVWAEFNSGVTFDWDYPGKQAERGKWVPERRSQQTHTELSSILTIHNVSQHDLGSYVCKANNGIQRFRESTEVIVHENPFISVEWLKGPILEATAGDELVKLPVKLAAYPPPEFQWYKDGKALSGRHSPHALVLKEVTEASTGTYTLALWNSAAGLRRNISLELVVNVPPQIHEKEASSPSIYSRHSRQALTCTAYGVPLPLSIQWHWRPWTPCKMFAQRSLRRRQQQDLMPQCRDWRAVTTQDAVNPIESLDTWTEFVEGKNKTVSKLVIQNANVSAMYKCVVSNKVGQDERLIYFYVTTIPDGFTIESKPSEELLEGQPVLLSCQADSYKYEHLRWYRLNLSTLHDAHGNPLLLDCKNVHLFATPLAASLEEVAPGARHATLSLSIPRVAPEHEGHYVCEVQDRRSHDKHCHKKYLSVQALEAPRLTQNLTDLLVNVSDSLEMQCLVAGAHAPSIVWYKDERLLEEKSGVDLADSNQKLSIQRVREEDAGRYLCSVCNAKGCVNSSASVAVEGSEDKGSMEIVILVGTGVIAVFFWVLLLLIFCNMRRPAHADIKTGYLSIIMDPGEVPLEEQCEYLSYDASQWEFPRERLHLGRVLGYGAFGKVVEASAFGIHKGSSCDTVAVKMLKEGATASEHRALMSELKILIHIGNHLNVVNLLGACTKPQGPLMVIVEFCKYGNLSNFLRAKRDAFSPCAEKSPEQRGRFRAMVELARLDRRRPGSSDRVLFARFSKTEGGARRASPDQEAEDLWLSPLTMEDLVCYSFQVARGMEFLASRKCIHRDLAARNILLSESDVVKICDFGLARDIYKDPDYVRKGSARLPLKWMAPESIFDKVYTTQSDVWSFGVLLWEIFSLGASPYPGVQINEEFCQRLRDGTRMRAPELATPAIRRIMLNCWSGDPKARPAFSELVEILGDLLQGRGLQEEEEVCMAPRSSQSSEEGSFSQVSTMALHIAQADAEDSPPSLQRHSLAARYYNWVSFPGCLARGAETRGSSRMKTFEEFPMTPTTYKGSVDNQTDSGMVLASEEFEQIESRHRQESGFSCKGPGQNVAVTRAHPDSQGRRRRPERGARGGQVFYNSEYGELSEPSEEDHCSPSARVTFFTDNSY

Sequence of Recombinant mouse VEGFR1-Fc (R&D Systems) (mouse) (P35969 27-759 limits assumed): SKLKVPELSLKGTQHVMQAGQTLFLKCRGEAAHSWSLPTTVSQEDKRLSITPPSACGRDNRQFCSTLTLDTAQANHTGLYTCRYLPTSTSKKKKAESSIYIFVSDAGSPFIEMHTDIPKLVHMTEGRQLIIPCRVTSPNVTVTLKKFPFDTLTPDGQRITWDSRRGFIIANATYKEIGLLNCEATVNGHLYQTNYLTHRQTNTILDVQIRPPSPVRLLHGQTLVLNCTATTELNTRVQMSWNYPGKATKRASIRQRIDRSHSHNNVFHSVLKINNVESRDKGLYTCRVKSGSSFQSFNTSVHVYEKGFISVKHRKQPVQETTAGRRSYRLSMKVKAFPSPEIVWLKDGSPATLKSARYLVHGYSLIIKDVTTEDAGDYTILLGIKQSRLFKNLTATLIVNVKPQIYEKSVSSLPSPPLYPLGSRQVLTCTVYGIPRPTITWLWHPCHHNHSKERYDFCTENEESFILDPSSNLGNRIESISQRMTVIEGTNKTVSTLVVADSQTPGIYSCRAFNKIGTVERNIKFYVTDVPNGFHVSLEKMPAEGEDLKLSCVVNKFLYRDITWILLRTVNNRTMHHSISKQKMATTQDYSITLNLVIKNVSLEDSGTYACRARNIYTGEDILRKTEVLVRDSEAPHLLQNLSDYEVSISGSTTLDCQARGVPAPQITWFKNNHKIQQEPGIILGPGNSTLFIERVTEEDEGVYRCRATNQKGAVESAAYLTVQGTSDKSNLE
Sequence of human VEGFR2, over-expressed on HEK293 cells (human) (P35968 20-1356): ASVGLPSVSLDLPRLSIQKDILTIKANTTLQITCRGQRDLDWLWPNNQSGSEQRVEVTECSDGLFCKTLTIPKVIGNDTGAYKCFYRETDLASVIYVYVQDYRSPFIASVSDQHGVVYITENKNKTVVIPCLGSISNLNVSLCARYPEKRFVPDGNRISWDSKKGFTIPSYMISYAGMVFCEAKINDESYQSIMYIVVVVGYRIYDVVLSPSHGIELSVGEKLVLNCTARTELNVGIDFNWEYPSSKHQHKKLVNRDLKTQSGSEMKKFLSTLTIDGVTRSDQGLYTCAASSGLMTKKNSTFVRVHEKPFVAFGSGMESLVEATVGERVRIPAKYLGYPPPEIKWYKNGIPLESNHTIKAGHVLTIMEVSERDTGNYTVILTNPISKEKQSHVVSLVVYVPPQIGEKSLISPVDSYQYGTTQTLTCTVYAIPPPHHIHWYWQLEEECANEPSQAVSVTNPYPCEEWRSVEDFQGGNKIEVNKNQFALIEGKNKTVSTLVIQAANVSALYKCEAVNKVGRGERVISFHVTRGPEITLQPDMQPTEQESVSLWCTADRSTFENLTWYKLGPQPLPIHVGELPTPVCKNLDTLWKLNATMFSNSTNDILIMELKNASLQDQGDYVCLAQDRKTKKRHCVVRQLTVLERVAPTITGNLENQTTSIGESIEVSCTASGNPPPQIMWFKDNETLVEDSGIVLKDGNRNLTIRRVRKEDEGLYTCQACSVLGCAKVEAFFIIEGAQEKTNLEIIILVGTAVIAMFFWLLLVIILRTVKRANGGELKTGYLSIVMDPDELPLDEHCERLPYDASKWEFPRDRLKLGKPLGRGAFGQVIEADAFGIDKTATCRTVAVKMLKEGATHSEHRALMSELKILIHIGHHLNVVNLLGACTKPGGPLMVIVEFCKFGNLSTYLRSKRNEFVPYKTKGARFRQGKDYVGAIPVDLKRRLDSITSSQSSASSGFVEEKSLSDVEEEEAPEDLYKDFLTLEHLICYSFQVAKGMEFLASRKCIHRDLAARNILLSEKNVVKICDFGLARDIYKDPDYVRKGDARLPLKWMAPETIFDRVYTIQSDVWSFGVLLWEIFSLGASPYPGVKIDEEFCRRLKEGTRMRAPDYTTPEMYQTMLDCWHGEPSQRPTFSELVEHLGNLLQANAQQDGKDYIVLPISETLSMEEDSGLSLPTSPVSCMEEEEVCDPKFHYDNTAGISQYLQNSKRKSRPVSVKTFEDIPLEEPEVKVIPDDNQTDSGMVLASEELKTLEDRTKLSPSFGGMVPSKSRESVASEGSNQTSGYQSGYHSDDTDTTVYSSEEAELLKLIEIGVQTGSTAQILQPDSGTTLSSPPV

- IC50 [1]: 0.163 nM
- Max % Inh. [1]: 100%
Substance: PlGF as used on mouse VEGFR1 (ligand)

- Geomean over-expressing/Geomean parental (Fold Signal/Background) [2]: 28 fold
Substance: Goat anti-human VEGFR2 (R&D Systems Catalog #AF357) (antibody)

- Geomean over-expressing/Geomean parental (Fold Signal/Background) [3]: 132 fold
Substance: Goat anti-human VEGFR3 (R&D Systems Catalog #AF349) (antibody)
